According to article PMC5923229 (2018):

Target: the molecule itself

B1: H46R/H48Q SOD1 with ebsulphur conjugated at Cys111 (enzyme)
chain: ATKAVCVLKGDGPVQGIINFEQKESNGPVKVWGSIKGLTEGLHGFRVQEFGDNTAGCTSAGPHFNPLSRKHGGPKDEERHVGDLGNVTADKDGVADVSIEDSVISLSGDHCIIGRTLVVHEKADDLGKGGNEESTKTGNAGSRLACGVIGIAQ
modifications: ebsulphur conjugated at Cys111
Q: With B1 as the protein, how does the Kd read?
A: Its Kd is 676 nM.
